The values that follow come from the supplement of paper PMC12042874.

± gives the uncertainty stated by the source.

The data set in a line: amyloid nucleation score (Sup35N fusion, yeast selection) (log enrichment); library NNK2; higher = more nucleation; inactive = no reads after selection. The procedure, abridged: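 Sup35N fusions to peptides of 20 random codons were expressed in psi-negative yeast, induced 24 hours with 100 μM copper sulfate, and grown 7 days at 30°C on medium lacking adenine and uracil. Input and output plasmid inserts were sequenced by Illumina. The nucleation score is the DiMSum log enrichment of output over input reads, centred on the mode score of non-aggregating sequences. Sequences with under 100 input reads were excluded.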
Take FVLTSSMVLFWDGRNDARHG: the amyloid nucleation score amounted to 4.31 ± 0.08.
As for FVPSSLEGPLAGCYSAFIFE, the entry is “inactive”.
On to FVRQDYKRVRDLFPTLNFDK, for which the amyloid nucleation score was -0.949 ± 0.64.
As for FVSIVPYRFL, the amyloid nucleation score was -1.56 ± 0.48.
For the substance FVSMNAGVYVGHRGHIMEFI, the amyloid nucleation score entry was “inactive”.
In the case of FVVLFLFYFEVFAVYKVSLG, the amyloid nucleation score entry was “inactive”.
On to FVVQPLSSFLWVSIA, for which the amyloid nucleation score turned out to be 1.05 ± 0.3.
As for FVWMCQLS, the figure is 6.297 ± 0.048; as for FVYGQWPNRSRAISSTSMFK, -0.723 ± 0.36; as for FVYNLTKTGLCYAQSVKYHN, -0.483 ± 0.39.
In the case of FWCINVSTWYNNQELI, the amyloid nucleation score result was “inactive”.
As for FWFMVCLIAG, the figure is -0.223 ± 0.48; as for FWIDYLVKFCCDLRMRMILK, 1.64 ± 0.2.
Consider FWRSMTYVRF, for which the amyloid nucleation score was -0.526 ± 0.36.
Turning to FWVKVNMSLGMSNLFVYACL, the amyloid nucleation score amounted to 6.298 ± 0.024.
In the case of FWVRNVDTLWLSPRYVTWSG, the amyloid nucleation score was -0.323 ± 0.33.
Consider FWYLLSLGQIIRSVNLGNWI, for which the amyloid nucleation score is -0.78 ± 1.1.
FYDVSCTRTDIMVESTSRLS displayed an amyloid nucleation score of 5.24 ± 0.086.
Take FYEHRIIFFVLGFFNATTGS: the amyloid nucleation score entry was “inactive”.
For FYESELLSARQFSVYVSLMM, the amyloid nucleation score entry was “inactive”.
Take FYFDGQLV: the amyloid nucleation score was -0.743 ± 0.76.
With FYHYDLLYRSGVLWRNHHGP, the amyloid nucleation score worked out at 2.77 ± 0.1.
On to FYIGILGDLWWRRR, for which the amyloid nucleation score was 1.15 ± 0.57.
Then FYIMFLVRCYKDEPSTRANL, with -0.796 ± 0.62.
As to FYKREVIFVLRLFFTVKQGR, the amyloid nucleation score is -1.73 ± 1.1.
As for FYLFQWCK, the figure is -0.889 ± 1.1; as for FYLMPDCLWGGKSSWSFLHL, -0.873 ± 0.5; as for FYPSWNLYRVRGQPYLNRVR, -0.352 ± 1.1.
Then FYTYCSLGWTEAAGAVFLES, with -1.34 ± 0.75; and FYVNSWPSPLGTYWRGYNGR, with 0.106 ± 1; and FYWNEICFNSSKE, with “inactive”.
The substance FYYSDDEFKCTVEIPVIYLI registered an amyloid nucleation score of -1.07 ± 0.5.
GADGISCFGISDKLGYDKFL showed an amyloid nucleation score of -0.1 ± 1.
Consider GAGLMALNLTHFVGGGLSTN, for which the amyloid nucleation score was -0.179 ± 0.76.
GALRPAFLSCKMVWR showed an amyloid nucleation score of 0.528 ± 0.49.
On to GALYLRDVLVICIMCGKIRY, for which the amyloid nucleation score stood at 2.73 ± 0.1.
As to GARASQRCESVGLPLEYVSR, the amyloid nucleation score turned out to be 0.974 ± 0.29.
Then GARMHCGFCMGSWWYVFWVR, with 1.32 ± 0.37; and GAVRVYNYNYQEVKTLLLVE, with -0.425 ± 0.32.
Consider GCCPAALFEFT, for which the amyloid nucleation score was -1.07 ± 0.78.
In turn, GCDLKLGVKCLKNERRVPEF displayed an amyloid nucleation score of 0.382 ± 0.8.
For the substance GCIGGHRFYSPRSNSVFEVG, the amyloid nucleation score was 3.44 ± 0.081.
Then GCNRQMSARK, with 4.29 ± 0.044; and GCQGVEGSESEQIDQIENWA, with 0.978 ± 0.74; and GCVNYNGRCEVDGRAD, with -0.227 ± 0.23.
The substance GCYHVMVRNNKTGVLVMRSA displayed an amyloid nucleation score of 0.545 ± 0.57.
On to GDFDKDV, for which the amyloid nucleation score was -0.188 ± 0.5.
As to GDGRVYMVIGSGRGRV, the amyloid nucleation score was determined as 0.506 ± 0.41.
In turn, GDGSRS yielded an amyloid nucleation score of 0.813 ± 0.23.
Then GDIRLLSRNVLGYIGALLDL, with 0.179 ± 0.39; and GDLRYQSPSLCFCFMSFGDQ, with 5.971 ± 0.024.
As for GDSNG, the amyloid nucleation score was -0.532 ± 0.29.
Then GDTYMGVYANLVMLALYGPG, with 5.2 ± 0.088; and GDYGPSDIMKKQFLFVSLVY, with -0.744 ± 1.1; and GEDHYIPQLFDGSVIILART, with 0.117 ± 0.79.
Consider GEFLYNT, for which the amyloid nucleation score is -0.237 ± 1.
GELGQCVIKSVMSMLHKRAN showed an amyloid nucleation score of -0.347 ± 0.79.
On to GESTWATVLACPSERRSCSR, for which the amyloid nucleation score was 0.559 ± 0.33.
Substance GFIYLILTL showed an amyloid nucleation score of 1.28 ± 0.13.
Consider GFKAMRCLWSGVARSIVRDS, for which the amyloid nucleation score was -0.242 ± 0.49.
GFKYVRSRNSGALYKYSS gave an amyloid nucleation score of -0.962 ± 0.54.
Turning to GFPRMTIHVKFHGQFSCFII, the amyloid nucleation score stood at 0.615 ± 0.5.
GFSEL returned an amyloid nucleation score of 0.306 ± 0.65.
As for GFTRKASGADTRGRRTAVSS, the amyloid nucleation score came to 1.61 ± 0.37.
As for GFVYQVIITIRHVCSLKRNR, the figure is 0.76 ± 0.16.
GGFSLMIFVCAGSHLG registered an amyloid nucleation score of 5.26 ± 0.07.
Then GGGSG, with 0.123 ± 1; and GGIAACPGLEINWKFDLVQW, with 0.914 ± 0.32.
For GGILH, the amyloid nucleation score is -0.254 ± 1.
On to GGLELLLGKMNVNVAMLKSF, for which the amyloid nucleation score was determined as 1.09 ± 0.17.
Regarding GGLFRFYS, the amyloid nucleation score result was “inactive”.
The substance GGLVVECRVGW gave an amyloid nucleation score of 3.42 ± 0.13.
GGNSQMFRLSLGDTKCSGSY registered an amyloid nucleation score of -1.06 ± 1.1.
In turn, GGNVLRE showed an amyloid nucleation score of -0.527 ± 0.35.
Then GGREARMGRKKGERVYRVRF, with 0.657 ± 0.56; and GGSVMQILGWFLQAV, with 0.683 ± 0.42; and GGVAETGERFWHSRLHG, with 0.679 ± 0.81.
As for GHIFSRHVKGQLHGWEEDGP, the figure is 0.058 ± 1; as for GHLYSISCVFNI, 8.633 ± 0.044.
For the substance GHMVYRTNVGRSV, the amyloid nucleation score turned out to be 0.187 ± 0.74.
GIFSCRLCSMLIELLMLRIM returned an amyloid nucleation score of -0.505 ± 1.1.
As for GIGFKWGTILLKSLGNIYSQ, the figure is -0.263 ± 0.76; as for GIGYRNVISSIMGFRFTGIR, 0.109 ± 0.53.
In turn, GIHRSMTFLTNQNRLIWSHG gave an amyloid nucleation score of 1.17 ± 0.4.
As for GIIGYDVKNKHHLTVGLRFI, the figure is -0.285 ± 0.24; as for GILNRTRPFR, -0.595 ± 0.28; as for GIPMSSPNGLDTYSTPMH, 2.63 ± 0.074.
Then GIQGLRVWFAYMFPSVVLLC, with -0.987 ± 0.78; and GISVICLYGVQYSDVGGVNL, with 5.098 ± 0.043; and GIVYVALSHYLAVNTKVFMP, with 0.477 ± 0.66.
GKCYFA registered an amyloid nucleation score of -1.87 ± 0.62.
Turning to GKDGRVFGSEAYWMEGKRKW, the amyloid nucleation score stood at 0.235 ± 0.8.
As for GKGRMYES, the figure is 0.738 ± 0.24; as for GKINDSGTSYSEKRSGPCRL, -0.874 ± 0.25; as for GKSEVGLGVGEHMQSEHGGS, -0.055 ± 0.49.
The substance GKYSLTTCAR registered an amyloid nucleation score of 0.449 ± 0.8.
Consider GLGAKYWIYVVGFHCVHN, for which the amyloid nucleation score came to 0.289 ± 0.39.
In the case of GLGLICLQMGGFCMWRFRRM, the amyloid nucleation score was found to be 0.197 ± 0.24.
The substance GLGSRWRCA gave an amyloid nucleation score of 2.01 ± 0.24.
GLGYSLICNLTSICGKNNV: the amyloid nucleation score was -0.147 ± 1.1.
Regarding GLHSGNFTACICM, the amyloid nucleation score came to 8.731 ± 0.055.
Then GLICRV, with 0.518 ± 0.46.
Substance GLIGCAMSVVPHEELCVRTC gave an amyloid nucleation score of 1.07 ± 0.29.
With GLKDAIMYSVVTLIRYRQDD, the amyloid nucleation score is -0.809 ± 0.56.
In turn, GLNVFCEKYISFKVMGIVER showed an amyloid nucleation score of 5.24 ± 0.069.
Turning to GLQRKGCP, the amyloid nucleation score was -0.356 ± 1.1.
In the case of GLRHGLCRSLLY, the amyloid nucleation score is -0.642 ± 1.1.
For GLRNDGAEVINSQPFLAHMC, the amyloid nucleation score turned out to be 0.497 ± 0.5.
On to GLRRVKFYIKVIFAKSSLVI, for which the amyloid nucleation score was -1.84 ± 0.49.
The substance GLSAHYA had an amyloid nucleation score of 0.113 ± 1.1.
Substance GLTLMSR returned an amyloid nucleation score of 1.06 ± 0.12.
For GLTSFMLDVLRGETAHRGEG, the amyloid nucleation score was determined as 0.972 ± 0.52.
As for GLTYKSDWSSFRSVYL, the figure is -0.771 ± 0.55; as for GLYEYPHGKTIMVDWMAGRL, 1.17 ± 0.28.
Then GMAFAKA, with 0.077 ± 0.63.
Substance GMFLWLFLVPRYHPTSTELG registered an amyloid nucleation score of 0.219 ± 1.
The substance GMGQTRKCHAGGNWHVYSCR yielded an amyloid nucleation score of 0.738 ± 0.47.
In the case of GMLRGSK, the amyloid nucleation score is -0.359 ± 0.39.
With GMNAAGEVWVRGWTSGCMVY, the amyloid nucleation score is 0.225 ± 0.5.
GMVCVP yielded an amyloid nucleation score of 0.876 ± 0.25.
Consider GMWFPLWFVDSSNSMSLLCV, for which the amyloid nucleation score was -1.59 ± 0.76.
Take GMWRIPYGWGPCYHSCVNQG: the amyloid nucleation score amounted to 4.958 ± 0.047.
In turn, GMYGLCF came in with an amyloid nucleation score of -0.524 ± 0.64.
Take GNFVHTYNIK: the amyloid nucleation score was found to be 0.526 ± 0.66.
With GNFVRLLV, the amyloid nucleation score is -0.031 ± 0.37.
GNGMNWPC had an amyloid nucleation score of 2.16 ± 0.13.
GNMYLSEVNVTC: the amyloid nucleation score was -0.78 ± 1.1.
Take GNNGRFSWVY: the amyloid nucleation score worked out at 0.556 ± 0.37.
As to GNNIVDPMLYLEGFKFSPIP, the amyloid nucleation score came to 0.082 ± 0.65.
As for GNRYSLCEAYATYLFSLDWY, the amyloid nucleation score result is “inactive”.
For GNTHHRDGILESQPFFVTEA, the amyloid nucleation score was determined as 0.465 ± 0.29.
GNVECS returned an amyloid nucleation score of -0.463 ± 0.45.
As for GNVGL, the figure is 1.86 ± 0.078; as for GNVSYHSCVW, 0.449 ± 0.36; as for GNVYHLPDCLNLTWVLKIKN, -0.944 ± 0.39.
GPCDQSWAT showed an amyloid nucleation score of 1.06 ± 0.19.
Then GPKPGDVSYVYKSCRTHNSP, with 0.53 ± 0.29; and GPLSNLYTKYDANENDGFIL, with -0.321 ± 0.41.
Then GQSCHYCRMTLNIDFTDWVL, with -0.228 ± 0.39; and GQVLLFCMRTTYTMDEEFNS, with 0.082 ± 1; and GRCSSSLRICRSNWGAY, with 0.45 ± 0.22.
The substance GRGAAILYMECYAVAEVCTF yielded an amyloid nucleation score of 0.108 ± 0.26.
